Experimental data published in patent US20160229907A1 (published 2016).

Target: T1, Human PCSK9 form a' (human, UniProt Q8NBP7 31-692)
T1 construct: also called PCSK9 a'
Experiment: SPR (ProteOn XPR36), antibody captured on anti-human IgG, PCSK9 as analyte, 25 C, 1:1 model

| Kd [nM] | koff [s⁻¹] | kon [M⁻¹ s⁻¹] | Binder |
| --- | --- | --- | --- |
| 0.185 | 2.29e-05 | 124000 | Evolocumab (antibody, V domains shown) VH: QVQLVQSGAEVKKPGASVKVSCKASGYTLTSYGISWVRQAPGQGLEWMGWVSFYNGNTNYAQKLQGRGTMTTDPSTSTAYMELRSLRSDDTAVYYCARGYGMDVWGQGTTVTVSS VL: QSALTQPASVSGSPGQSITISCTGTSSDVGGYNSVSWYQQHPGKAPKLMIYEVSNRPSGVSNRFSGSKSGNTASLTISGLQAEDEADYYCNSYTSTSMVFGGGTKLTVL |
| 0.181 | 0.000272 | 1.5e+06 | Antibody 316P (antibody, V domains shown) VH: EVQLVESGGGLVQPGGSLRLSCAASGFTFNNYAMNWVRQAPGKGLDWVSTISGSGGTTNYADSVKGRFIISRDSSKHTLYLQMNSLRAEDTAVYYCAKDSNWGNFDLWGRGTLVTVSS VL: not shown |
